Measurements taken from paper PMC12918760.

T1: NONO homodimer (human, UniProt Q15233 53-312)
T1 sequence: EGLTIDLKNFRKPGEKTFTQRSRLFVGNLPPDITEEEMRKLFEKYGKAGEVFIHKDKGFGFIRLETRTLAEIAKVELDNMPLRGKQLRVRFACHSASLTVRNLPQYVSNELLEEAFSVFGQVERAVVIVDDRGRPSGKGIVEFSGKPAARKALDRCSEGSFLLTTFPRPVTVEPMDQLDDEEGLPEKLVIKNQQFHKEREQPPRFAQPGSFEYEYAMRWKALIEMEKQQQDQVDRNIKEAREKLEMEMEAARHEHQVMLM

T2: NONO in NONO/SFPQ heterodimer;SFPQ in NONO/SFPQ heterodimer (human;human?, UniProt Q15233;P23246 53-312;276-535, |)
T2 sequence 1: T1 sequence
T2 sequence 2: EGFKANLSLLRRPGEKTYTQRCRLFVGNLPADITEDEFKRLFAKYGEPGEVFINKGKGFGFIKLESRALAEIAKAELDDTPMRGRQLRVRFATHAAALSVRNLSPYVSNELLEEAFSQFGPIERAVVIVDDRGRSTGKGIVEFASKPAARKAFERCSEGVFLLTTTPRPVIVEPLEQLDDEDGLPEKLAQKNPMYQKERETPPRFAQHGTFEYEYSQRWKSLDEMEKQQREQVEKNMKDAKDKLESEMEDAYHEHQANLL

B1: GU-rich RNA oligo 2 (ssRNA)
RNA: TUGUGCCGUCU
modifications: 5' residue printed as T
B2: GU-rich RNA oligo 1 (ssRNA)
RNA: TGUGUGUGGCCGU
modifications: 5' residue printed as T

What was measured:
NONO homodimer = biological target: T1, NONO homodimer; assay: MST
[1] = biological target: T2, NONO in NONO/SFPQ heterodimer;SFPQ in …; assay: MST

| Binder | binding result (NONO homodimer) | binding result [1] |
| --- | --- | --- |
| B1 | binds | binds |
| B2 | binds | binds |
